Patent publication US20240002497A1 (Merck Sharp & Dohme, published 2024)

What was measured:
[1] = molecular target: T1, huNav157 chimera 14 (human); experiment: binding FACS, HEK FlpIn cells
T1 construct: Chimera without β subunits; also called Nav157ch14

[2] = molecular target: T2, huNav157 chimera 14 + β1-β2-β3 (human); experiment: binding FACS, HEK FlpIn cells
T2 construct: Chimera of huNav1.7α (extracellular loops and transmembrane helices) and huNav1.5α (intracellular loops); also called Nav157ch14-β1-β2-β3; huNav157 chimera 14-beta1-beta2-beta3

[3] = molecular target: T3, huNav1.7α + β1 (human Nav1.7α co-expressed with Navβ1) (human, UniProt Q15858 1-1988; Q07699 19-218); experiment: binding FACS, HEKa/β1 cells
T3 construct: also called HEK293 human Nav1.7α + β1; HEKa/β1 Nav1.7α

[4] = molecular target: T4, huNav1.7α (human Nav1.7 alpha subunit, expressed without β subunits) (human, UniProt Q15858 1-1988); experiment: binding FACS, HEKa cells
T4 construct: also called HEK293 human Nav1.7α; HEKa Nav1.7α

[5] = molecular target: T5, huNav1.7α + β1 (HEKa/β1) (human, UniProt Q15858 1-1988; Q07699 19-218); experiment: binding FACS, HEKa/β1 cells
T5 construct: also called HEKa/β1 huNav1.7α
How it was run: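 Flow cytometry read-out of anti-Flag signal on propidium iodide-negative cells measured ISVD binding. Purified FLAG3-tagged ISVD, diluted in PBS with 10% FBS and NaN₃, was applied to the cells for 30 minutes at 4° C.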

[6] = molecular target: T6, huNav1.7α (HEKa) (human, UniProt Q15858 1-1988); experiment: binding FACS, HEKa cells
T6 construct: also called HEKa huNav1.7α
Method: Binding of the ISVDs to cell-expressed Nav1.7α was detected via murine anti-Flag (Sigma, catalog #F1804). Briefly, cells were resuspended in FACS buffer (PBS, 10% FBS, NaN₃) and transferred to a 96-well V-bottom plate at 1×10^5 cells/well. Purified FLAG3-tagged ISVD was diluted in FACS buffer and added to the cells for 30 minutes at 4° C. […] Prior to the read-out, the samples were resuspended in 1 μg/mL propidium iodide (Sigma, catalog #P4170) to exclude dead cells. Between each step, the cells were centrifuged for 5 minutes at 200 grams and washed with 100 μL/well FACS buffer.

Binder | EC50 [5] | EC50 [6] | also measured
F010301649 (VHH, also called F0103387G05(L11V, A14P, N82bS, N83R, V89L, R105Q)) VHH: EVQLVESGGGVVQPGGSLRLSCDASGRILRIGYMRWHRQGAGKQREFVARITDDSATDYADSVKGRFTISRDNAKNTVYLQMNSLRPEDTALYYCEALVTASVRGGSIHSGTYWGQGTLVTVSS |  |  | Bmax [1]: 100%; EC50 [1]: 3.4 nM; EC50 [2]: 4.2 nM; EC50 [3]: 4.1 nM; Bmax [4]: 100%; EC50 [4]: 5.3 nM
F010301662 (VHH) VHH: EVQLVESGGGLVQPGGSLRLSCAASVRPFSTSAMGWFRQAPEKEREAVAGILWNGIVTYYADSVKGRFTISRDNAKNEVYLQMNKLKPEDTAVYYCALDRAYQGRSFSAYEYEYWGQGTLVTVSS | 17 nM | 19 nM | 
F010301658 (VHH) VHH: EVQLVESGGGLVQPGGSLRLSCAASVRPFSTSAMGWFRQAPEKEREAVAAILWNGIVTYYADSVKGRFTISRDNAKNEVYLQMNKLKPEDTAVYYCALDRAYQGRSFSAKEYEYWGQGTLVTVSS | 20 nM | 23 nM | 
F010301661 (VHH) VHH: EVQLVESGGGLVQPGGSLRLSCAASVRPFSTSAMGWFRQAPEKEREAVAAILWNGIVTYYADSVKGRFTISRDNAKNEVYLQMNKLKPEDTAVYYCALDRDYGGRSFSAKEYEYWGQGTLVTVSS | 18 nM | 16 nM | 
F010301664 (VHH) VHH: EVQLVESGGGLVQPGGSLRLSCAASVRPFSTSAMGWFRQAPEKEREAVAGILWNGIVTYYADSVKGRFTISRDNAKNEVYLQMNKLKPEDTAVYYCALDRDYQGRSFSAKEYEYWGQGTLVTVSS | 18 nM | 13 nM | 

Continued by falling EC50 [5], values first:

EC50 [5] | EC50 [6] | Binder | also measured
16 nM | 20 nM | F010301657 (VHH) VHH: EVQLVESGGGLVQPGGSLRLSCAASVRPFSTSAMGWFRQAPEKEREAVAGILWNGIVTYYADSVKGRFTISRDNAKNEVYLQMNKLKPEDTAVYYCALDRAYQGRSFSAKEYEYWGQGTLVTVSS | 
14 nM | 13 nM | F010301663 (VHH) VHH: EVQLVESGGGLVQPGGSLRLSCAASVRPFSTSAMGWFRQAPEKEREAVAGILWNGIVTYYADSVKGRFTISRDNAKNEVYLQMNKLKPEDTAVYYCALDRAYGGRSFSAKEYEYWGQGTLVTVSS | 
12 nM | 11 nM | F010301659 (VHH) VHH: EVQLVESGGGLVQPGGSLRLSCAASVRPFSTSAMGWFRQAPEKEREAVAAILWNGIVTYYADSVKGRFTISRDNAKNEVYLQMNKLKPEDTAVYYCALDRAYGGRSFSAYEYEYWGQGTLVTVSS | 
11 nM | 8.8 nM | F010301665 (VHH) VHH: EVQLVESGGGLVQPGGSLRLSCAASVRPFSTSAMGWFRQAPEKEREAVAAILWNGIVTYYADSVKGRFTISRDNAKNEVYLQMNKLKPEDTAVYYCALDRAYGGRSFSAKEYEYWGQGTLVTVAA | 
